Consider seven molecules from patent US20190151446A1 (LIVERPOOL SCHOOL OF TROPICAL MEDICINE, published 2019).

Sequences and labels used below:
T1: human FcγRIIA (human, UniProt P12318 36-218)
T1 construct: Bought protein, construct not described
T1 sequence (looked up): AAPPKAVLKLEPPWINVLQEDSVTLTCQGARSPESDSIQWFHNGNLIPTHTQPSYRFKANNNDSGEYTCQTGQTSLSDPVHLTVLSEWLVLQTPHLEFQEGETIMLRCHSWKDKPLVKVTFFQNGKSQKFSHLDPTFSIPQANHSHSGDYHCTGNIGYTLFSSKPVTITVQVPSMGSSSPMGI

T2: human FcγRIIB (human, UniProt P31994 46-217)
T2 construct: Bought protein, construct not described
T2 sequence (looked up): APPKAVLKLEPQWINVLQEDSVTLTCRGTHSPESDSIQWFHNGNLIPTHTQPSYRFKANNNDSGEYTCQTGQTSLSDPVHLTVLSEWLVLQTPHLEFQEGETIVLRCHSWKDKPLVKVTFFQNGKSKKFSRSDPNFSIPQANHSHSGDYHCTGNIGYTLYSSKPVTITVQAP

T3: soluble recombinant tetrameric human DC-SIGN (human, UniProt Q9NNX6 66-404, limits assumed)
T3 construct: also called Dendritic Cell-Specific Intercellular adhesion molecule-3-Grabbing Non-integrin
T3 sequence (looked up): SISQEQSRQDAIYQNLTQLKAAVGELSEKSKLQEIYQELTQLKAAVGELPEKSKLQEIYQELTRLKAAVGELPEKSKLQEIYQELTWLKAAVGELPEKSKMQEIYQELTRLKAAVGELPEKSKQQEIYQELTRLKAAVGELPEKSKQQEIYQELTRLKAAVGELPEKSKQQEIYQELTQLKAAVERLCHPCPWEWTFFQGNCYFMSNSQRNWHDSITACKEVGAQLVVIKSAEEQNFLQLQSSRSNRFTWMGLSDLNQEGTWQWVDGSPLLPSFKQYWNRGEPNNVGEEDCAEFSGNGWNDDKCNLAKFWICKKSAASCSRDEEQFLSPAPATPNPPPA

B1: D221N mutant of hexa-Fc (Fc fusion)
chain: NKTHTCPPCPAPELLGGPSVFLFPPKPKDTLMISRTPEVTCVVVDVSHEDPEVKFNWYVDGVEVHNAKTKPREEQYNSTYRVVSVLTVCLQDWLNGKEYKCKVSNKALPAPIEKTISKAKGQPREPQVYTLPPSREEMTKNQVSLTCLVKGFYPSDIAVEWESNGQPENNYKTTPPVLDSDGSFFLYSKLTVDKSRWQQGNVFSCSVMHEALHNHYTQKSLSLSPGKLVLGPPLYNVSLVMSDTAGTCY
modifications: N-linked glycans at Asn221 (N1), Asn297 (N77) and Asn563 (N236)
notes: Made on the hexa-Fc template in CHO-K1 cells; multimeric, hyper-sialylated
B2: D221N/N297A/N563A mutant of hexa-Fc (Fc fusion)
chain: B1 chain with N77A, N236A
modifications: N-linked glycan at Asn221 (N1)
notes: Made on the hexa-Fc template in CHO-K1 cells; higher order multimers; also called D221/N297A/N563A
B3: D221N/N563A mutant of hexa-Fc (Fc fusion)
chain: B1 chain with N236A
modifications: N-linked glycans at Asn221 (N1) and Asn297 (N77)
notes: Made on the hexa-Fc template in CHO-K1 cells; runs as higher order multimers approximating dodecamers; also called D221/N563A; D221N/N563A dodecamer
B4: D221N/N297A mutant of hexa-Fc (Fc fusion)
chain: B1 chain with N77A
modifications: N-linked glycans at Asn221 (N1) and Asn563 (N236)
notes: Made on the hexa-Fc template in CHO-K1 cells; multimeric
B5: N297A/N563A mutant of hexa-Fc (Fc fusion)
chain: B1 chain with N1D, N77A, N236A
modifications: no glycans attached
notes: Made on the hexa-Fc template in CHO-K1 cells; Results-1 says it cannot form oligomers, Results-2 says it forms higher order multimers; also called glycan deficient mutant; N297A/N563A double-knockout
B6: N297A mutant of hexa-Fc (Fc fusion)
chain: B1 chain with N1D, N77A
modifications: N-linked glycan at Asn563 (N236)
notes: Made on the hexa-Fc template in CHO-K1 cells; still multimeric (pentamers and hexamers)
B7: human Siglec-1 (receptor, UniProt Q9BZZ2 20-1641, looked up)
chain: SWGVSSPQDVQGVKGSCLLIPCIFSFPADVEVPDGITAIWYYDYSGQRQVVSHSADPKLVEARFRGRTEFMGNPEHRVCNLLLKDLQPEDSGSYNFRFEISEVNRWSDVKGTLVTVTEEPRVPTIASPVELLEGTEVDFNCSTPYVCLQEQVRLQWQGQDPARSVTFNSQKFEPTGVGHLETLHMAMSWQDHGRILRCQLSVANHRAQSEIHLQVKYAPKGVKILLSPSGRNILPGELVTLTCQVNSSYPAVSSIKWLKDGVRLQTKTGVLHLPQAAWSDAGVYTCQAENGVGSLVSPPISLHIFMAEVQVSPAGPILENQTVTLVCNTPNEAPSDLRYSWYKNHVLLEDAHSHTLRLHLATRADTGFYFCEVQNVHGSERSGPVSVVVNHPPLTPVLTAFLETQAGLVGILHCSVVSEPLATLVLSHGGHILASTSGDSDHSPRFSGTSGPNSLRLEIRDLEETDSGEYKCSATNSLGNATSTLDFHANAARLLISPAAEVVEGQAVTLSCRSGLSPTPDARFSWYLNGALLHEGPGSSLLLPAASSTDAGSYHCRARDGHSASGPSSPAVLTVLYPPRQPTFTTRLDLDAAGAGAGRRGLLLCRVDSDPPARLQLLHKDRVVATSLPSGGGCSTCGGCSPRMKVTKAPNLLRVEIHNPLLEEEGLYLCEASNALGNASTSATFNGQATVLAIAPSHTLQEGTEANLTCNVSREAAGSPANFSWFRNGVLWAQGPLETVTLLPVARTDAALYACRILTEAGAQLSTPVLLSVLYPPDRPKLSALLDMGQGHMALFICTVDSRPLALLALFHGEHLLATSLGPQVPSHGRFQAKAEANSLKLEVRELGLGDSGSYRCEATNVLGSSNTSLFFQVRGAWVQVSPSPELQEGQAVVLSCQVHTGVPEGTSYRWYRDGQPLQESTSATLRFAAITLTQAGAYHCQAQAPGSATTSLAAPISLHVSYAPRHVTLTTLMDTGPGRLGLLLCRVDSDPPAQLRLLHGDRLVASTLQGVGGPEGSSPRLHVAVAPNTLRLEIHGAMLEDEGVYICEASNTLGQASASADFDAQAVNVQVWPGATVREGQLVNLTCLVWTTHPAQLTYTWYQDGQQRLDAHSIPLPNVTVRDATSYRCGVGPPGRAPRLSRPITLDVLYAPRNLRLTYLLESHGGQLALVLCTVDSRPPAQLALSHAGRLLASSTAASVPNTLRLELRGPQPRDEGFYSCSARSPLGQANTSLELRLEGVRVILAPEAAVPEGAPITVTCADPAAHAPTLYTWYHNGRWLQEGPAASLSFLVATRAHAGAYSCQAQDAQGTRSSRPAALQVLYAPQDAVLSSFRDSRARSMAVIQCTVDSEPPAELALSHDGKVLATSSGVHSLASGTGHVQVARNALRLQVQDVPAGDDTYVCTAQNLLGSISTIGRLQVEGARVVAEPGLDVPEGAALNLSCRLLGGPGPVGNSTFAWFWNDRRLHAEPVPTLAFTHVARAQAGMYHCLAELPTGAAASAPVMLRVLYPPKTPTMMVFVEPEGGLRGILDCRVDSEPLASLTLHLGSRLVASSQPQGAPAEPHIHVLASPNALRVDIEALRPSDQGEYICSASNVLGSASTSTYFGVRALHRLHQFQQ
notes: Construct not described; also called sialoadhesin; CD169

Substitutions are numbered along the chain they refer to. Names may count otherwise.

One assay concerns the target T4, human FcγRI (human, UniProt P12314 16-288).
T4 construct: Bought protein, construct not described
As to the kind of experiment: ELISA, receptor coated on plate. On the procedure:
(§1) ELISAs were used to investigate the binding of oligomeric Fc mutants to FcγRI, FcγRIIA, FcγRIIB, FcγRIIIA and FcγRIIIB (all from R&D laboratories). Receptors were coated down to ELISA plates (Nunc) in carbonate buffer pH9 (Sigma-Aldrich) at 2 μg/ml overnight at 4° C. Plates were then blocked in PBS/0.1% Tween-20 (PBST) containing 4% skimmed milk (Tesco). Plates were then washed three times in PBS/0.1% Tween-20 (PBST) before adding Fc mutants at the indicated concentrations in PBST overnight at 4° C. Plates were washed as above and incubated for 2 h with 1:500 dilution of an alkaline phosphatase conjugated goat Fab′₂ anti-human IgG (Jackson Laboratories). Plates were washed as above and developed for 15 min with 100 μl of a Sigmafast p-nitrophenyl phosphate solution (Sigma-Aldrich). Plates were read at 405 nm and data plotted with Graphpad prism.
(In general: ELISA stands for enzyme-linked immunosorbent assay.)

The target of the next assay is T1, human FcγRIIA. As to the kind of experiment: ELISA, receptor coated on plate. On the procedure: as §1
In a further assay the target is T2, human FcγRIIB. Description: ELISA, receptor coated on plate. On the procedure:
as §1

The target of assay [1] is T5, human FcγRIIIA (human, UniProt P08637 17-208).
T5 construct: Bought protein, construct not described; also called FcgRIIIA
As to the kind of experiment: ELISA, receptor coated on plate. How it is done:
as §1

Another assay addresses T6, human FcγRIIIB (human, UniProt O75015 17-200).
T6 construct: Bought protein, construct not described
Description: ELISA, receptor coated on plate. On the procedure: as §1

The target of assay [2] is T3, soluble recombinant tetrameric human …. Description: ELISA, soluble tetrameric human DC-SIGN (FIG. 12 A).
Assay [3] deals with T5, human FcγRIIIA. As to the kind of experiment: ELISA, receptor coated on plate (FIG. 4). How it is done:
as §1

For the assay “human Siglec-1”, the target named is B7. Description: ELISA (FIG. 12 B).
Assay [4] deals with T7, monomeric IgG1-Fc control (human, UniProt P01857-1 104-330 = IgG part, limits assumed, N-linked glycan at Asn297).
T7 construct: domain: Fc; also called wildtype IgG-Fc; wildtype IgG1-Fc
Description: ELISA (FIG. 12 B).

T6 sequence (O75015 17-200 limits assumed): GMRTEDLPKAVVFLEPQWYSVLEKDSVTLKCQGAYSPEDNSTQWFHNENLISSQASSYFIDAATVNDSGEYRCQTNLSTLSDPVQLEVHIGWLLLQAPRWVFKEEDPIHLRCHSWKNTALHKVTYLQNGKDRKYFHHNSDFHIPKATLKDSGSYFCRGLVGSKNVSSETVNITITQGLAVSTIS
T4 sequence (P12314 16-288 limits assumed): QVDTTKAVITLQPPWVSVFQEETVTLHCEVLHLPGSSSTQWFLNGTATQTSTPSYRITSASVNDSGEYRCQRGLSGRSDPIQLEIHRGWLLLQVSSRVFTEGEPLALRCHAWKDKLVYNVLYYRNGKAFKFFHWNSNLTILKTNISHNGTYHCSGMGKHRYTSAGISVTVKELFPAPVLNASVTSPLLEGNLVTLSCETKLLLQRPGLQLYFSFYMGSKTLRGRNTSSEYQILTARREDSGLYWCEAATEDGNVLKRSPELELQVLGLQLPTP
T5 sequence (P08637 17-208 limits assumed): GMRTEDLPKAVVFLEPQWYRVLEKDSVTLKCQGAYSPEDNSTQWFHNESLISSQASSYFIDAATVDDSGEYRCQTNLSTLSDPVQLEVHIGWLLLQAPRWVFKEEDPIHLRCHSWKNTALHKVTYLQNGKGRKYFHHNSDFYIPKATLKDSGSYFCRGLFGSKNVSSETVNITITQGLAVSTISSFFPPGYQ

On to B1, for which the binding result with human FcγRI, in the assay with human FcγRIIA, with human FcγRIIB, with human FcγRIIIA [1] and in the assay with human FcγRIIIB was “no binding” in each case.

Regarding B2, the binding result in assay [2] is “no binding”.

For the molecule B3, the binding result in the assay with human FcγRI, in the assay with human FcγRIIA, with human FcγRIIB, with human FcγRIIIB and with human FcγRIIIA [3] was “binds” throughout.

For B4, the binding result (in the assay with human FcγRI; with human FcγRIIA; in the assay with human FcγRIIB; in the assay with human FcγRIIIA [1]; in the assay with human FcγRIIIB; in assay [2]) was “no binding” each time.

In the case of B5, in the assay with human Siglec-1, the binding result is recorded as “no binding”.

For the molecule B6, the binding result in the assay with human FcγRI, with human FcγRIIA, with human FcγRIIB, with human FcγRIIIA [1] and with human FcγRIIIB was “no binding” in each case.

For B7, the binding result in assay [4] is listed as “no binding”.
